Columns and labels:
[1] = target: T1, high affinity (HA) α4β7 integrin on activated cells (Mn2+-treated TK-1 cells or primary mouse leukocytes) (mouse, UniProt Q00651 41-1039; P26011 20-806); experiment: flow cytometry on Mn2+-treated TK-1 cells
T1 construct: whole, on cells; Same polypeptides as m4; also called LPAM-1
Experimental: (§1) In-vitro binding—TK-1 cells were activated according to Y. Yang et al.³⁰. Briefly, cells were washed with PBS and resuspended in resuspension buffer (HBSS with 10 mM HEPES buffer, 2 mM CaCl₂ and 2 mM MgCl₂). Non-activated cells were kept on ice while activated cells were resuspended in pre-incubation buffer (HBSS with 10 mM HEPES buffer and 2 mM EDTA), incubated at RT for 30 minutes with gentle rotation, washed with PBS and finally resuspended in activation buffer (HBSS with 10 mM HEPES buffer, 2 mM CaCl₂ and 2 mM MnCl₂). MAdCAM-D1D2-Fc and the controls were added to both activated and non-activated cells and incubated for 30 minutes at 4° C. Cells were subsequently washed and stained with either anti-human IgG or anti-mouse IgG conjugated to AlexaFluor647 (Biolegend, USA). Binding of D1D2-Fc to TK-1 cells was assessed by analyzing the fluorescence of the cells by flow cytometry. Binding of D1D2-targeted Cy5-LNPs was detected by flow cytometry directly using the Cy5 fluorescence (without addition of another antibody). In the binding experiments with Cy5-LNPs, the HBSS in the activation buffer was replaced with RPMI+10% FBS due to a high background using LNPs.
(§2) Following purification, the functionality of the generated D1D2-Fc and mD1D2-Fc was tested in-vitro by assessing their binding to TK-1 cells using flow cytometry. […]

[2] = target: T2, low affinity (LA) α4β7 integrin on non-activated cells (Ca2+ control, no Mn2+) (mouse, UniProt Q00651 41-1039; P26011 20-806); experiment: flow cytometry on TK-1 cells without Mn2+ (Ca2+ control)
T2 construct: whole, on cells
T2 sequence (Q00651 41-1039, chain 1 of 2): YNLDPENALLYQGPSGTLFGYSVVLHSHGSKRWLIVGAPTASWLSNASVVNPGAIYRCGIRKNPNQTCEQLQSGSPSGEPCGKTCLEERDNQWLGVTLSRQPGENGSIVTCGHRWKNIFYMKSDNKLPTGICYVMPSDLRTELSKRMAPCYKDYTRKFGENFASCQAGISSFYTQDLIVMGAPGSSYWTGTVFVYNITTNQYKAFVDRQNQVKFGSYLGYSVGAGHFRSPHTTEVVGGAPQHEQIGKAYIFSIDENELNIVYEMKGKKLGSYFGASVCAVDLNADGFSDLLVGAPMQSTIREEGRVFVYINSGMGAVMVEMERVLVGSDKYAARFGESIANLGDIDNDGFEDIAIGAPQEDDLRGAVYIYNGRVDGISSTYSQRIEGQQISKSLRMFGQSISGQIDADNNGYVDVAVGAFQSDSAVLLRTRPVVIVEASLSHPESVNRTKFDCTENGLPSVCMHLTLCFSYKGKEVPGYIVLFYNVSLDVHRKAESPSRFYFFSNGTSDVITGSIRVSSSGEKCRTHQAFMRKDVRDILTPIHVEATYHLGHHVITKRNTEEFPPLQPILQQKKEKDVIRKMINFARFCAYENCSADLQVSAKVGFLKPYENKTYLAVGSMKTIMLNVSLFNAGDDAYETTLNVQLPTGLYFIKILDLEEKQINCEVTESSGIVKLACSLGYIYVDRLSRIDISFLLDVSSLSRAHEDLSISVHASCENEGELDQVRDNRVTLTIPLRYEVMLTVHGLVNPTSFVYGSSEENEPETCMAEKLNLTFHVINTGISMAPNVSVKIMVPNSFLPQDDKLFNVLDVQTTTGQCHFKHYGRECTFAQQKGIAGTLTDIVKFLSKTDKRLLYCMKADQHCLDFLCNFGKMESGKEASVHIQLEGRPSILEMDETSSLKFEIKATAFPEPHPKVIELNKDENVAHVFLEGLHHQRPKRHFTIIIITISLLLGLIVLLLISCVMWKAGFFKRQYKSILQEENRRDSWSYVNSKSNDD
T2 sequence (P26011 20-806, chain 2 of 2): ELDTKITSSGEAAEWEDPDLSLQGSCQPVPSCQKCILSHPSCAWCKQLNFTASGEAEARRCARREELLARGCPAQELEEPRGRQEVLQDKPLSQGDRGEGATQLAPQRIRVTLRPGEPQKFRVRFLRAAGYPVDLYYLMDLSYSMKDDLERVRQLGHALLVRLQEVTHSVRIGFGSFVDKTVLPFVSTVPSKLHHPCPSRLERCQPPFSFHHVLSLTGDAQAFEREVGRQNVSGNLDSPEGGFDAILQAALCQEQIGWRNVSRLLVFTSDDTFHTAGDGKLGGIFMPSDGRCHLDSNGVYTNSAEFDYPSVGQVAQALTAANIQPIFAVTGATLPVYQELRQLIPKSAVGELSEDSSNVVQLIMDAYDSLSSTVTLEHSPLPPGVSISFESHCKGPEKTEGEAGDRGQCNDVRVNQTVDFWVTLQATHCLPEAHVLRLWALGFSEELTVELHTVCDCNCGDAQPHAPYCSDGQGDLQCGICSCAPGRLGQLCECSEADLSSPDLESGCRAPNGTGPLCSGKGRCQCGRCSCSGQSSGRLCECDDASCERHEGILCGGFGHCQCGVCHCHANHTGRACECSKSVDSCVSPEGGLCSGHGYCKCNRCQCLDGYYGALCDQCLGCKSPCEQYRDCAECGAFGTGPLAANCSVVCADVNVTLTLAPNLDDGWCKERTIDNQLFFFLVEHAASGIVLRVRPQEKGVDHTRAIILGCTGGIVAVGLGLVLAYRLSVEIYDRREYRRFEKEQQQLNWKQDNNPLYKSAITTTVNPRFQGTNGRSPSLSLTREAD
Experimental: as §1, §2

T1 sequence (Q00651 41-1039, chain 1 of 2): as the sequence (Q00651 41-1039, chain 1 of 2) above
T1 sequence (P26011 20-806, chain 2 of 2): as the sequence (P26011 20-806, chain 2 of 2) above

- binding result [1]: no binding
- binding result [2]: no binding
B1: MAdCAM-mD1D2-Fc fusion protein (D62A mutated control) (Fc fusion)
chain: DYKDDDDKLAAAQSFQVNPPESEVAVAMGTSLQITCSMSCDEGVARVHWRGLATSLGSVQTLPGSSILSVRGMLSDTGTPVCVGSCGSRSFQHSVKILVYAFPDQLVVSPEFLVPGQDQVVSCTAHNIWPADPNSLSFALLLGEQRLEGAQALEPEQEEEIQEAEGTPLFRMTQRWRLPSLGTPAPPALHCQVTMQLPKLVLTHRKEIPVLGGGGSGGGGSGGGGSVPRECNPCGCTGSEVSSVFIFPPKTKDVLTITLTPKVTCVVVDISQNDPEVRFSWFIDDVEVHTAQTHAPEKQSNSTLRSVSELPIVHRDWLNGKTFKCKVNSGAFPAPIEKSISKPEGTPRGPQVYTMAPPKEEMTQSQVSITCMVKGFYPPDIYTEWKMNGQPQENYKNTPPTMDTDGSYFLYSKLNVKKETWQQGNTFTCSVLHEGLHNHHTEKSLSHSPGKGSGHHHHHH
notes: The signal peptide, FLAG-tag and 6x HIS-tag are as in D1D2-Fc; also called mD1D2 control; targeting protein of the mD1D2-targeted LNPs (mD1D2-LNPs)
